The values that follow come from patent US20260193335A1 (ZOETIS SERVICES, published 2026).

The assay addresses T1, Feline FcRn (complex of FcRn-α subunit and β-microglobulin, C-terminal His tag) (feline, UniProt A0ABI7ZNY9 23-296; Q5MGS7 21-118).
T1 construct: treated here as one molecule
Briefly: SPR Biacore, biotin-FcRn on SA chip, pH 6. The procedure: Feline FcRn was isolated, prepared and mutant Fc IgGs were assayed against feline FcRn according to Strietzel et. al., discussed above. Standard PCR was used to amplify feline FcRn-α subunit and β-microglobulin. FcRn-α subunit and β-microglobulin were co-transfected into HEK 293 cells and the FcRn complex was purified by IMAC affinity purification via the c-terminal His tag. FcRn complex was biotin labeled through BirA enzymatic biotinylatoin reaction. KD's were measured by Biacore T200 (GE Healthcare, Pittsburgh, PA, USA) or Biacore 8K (Cytiva, Marlborough, MA, USA) using a SA sensor chip.
FcRn was captured on the surface of the sensor using a modified SA capture method. 10 mM MES; 150 mM NaCl; 0.005% Tween20; 0.5 mg/mL BSA; pH6 was used as capture, method running buffer and titrations. 1×HBS-P, 0.5 mg/mL BSA; pH7.4 was also used for method running buffer and titrations. Fc mutant IgGs were flowed over receptor surfaces and affinity was determined using T200 evaluation software or Biacore Insight Evaluation software. Blank runs containing buffer only were subtracted out from all runs. Flow cells were regenerated using 50 mM Tris pH8 or pH9. Runs were performed at 15° C.

As usually defined, the Kd is the concentration at which binding is half-saturated. Read a low Kd as higher affinity.

B1: mAb4 (felinized anti-IL31 antibody ZTS-5864) S428L and S434H, feline IgG1a (antibody)
heavy: DVQLVESGGDLVKPGGSLRLTCVASGFTFSDYAMSWVRQAPGKGLQWVAGIDSVGSGTSYADSVKGRFTISRDNAKNTLYLQMNSLKTEDTATYYCASGFPGSFEHWGQGTLVTVSSASTTAPSVFPLAPSCGTTSGATVALACLVLGYFPEPVTVSWNSGALTSGVHTFPAVLQASGLYSLSSMVTVPSSRWLSDTFTCNVAHPPSNTKVDKTVRKTDHPPGPKPCDCPKCPPPEMLGGPSIFIFPPKPKDTLSISRTPEVTCLVVDLGPDDSDVQITWFVDNTQVYTAKTSPREEQFNSTYRVVSVLPILHQDWLKGKEFKCKVNSKSLPSPIERTISKAKGQPHEPQVYVLPPAQEELSRNKVSVTCLIKSFHPPDIAVEWEITGQPEPENNYRTTPPQLDSDGTYFVYSKLSVDRSHWQRGNTYTCSVLHEALHHHHTQKSLTQSPGK
VL: QSVLTQPSSVSGTLGQRITISCTGSSSNIGSGYVGWYQQVPGMGPKTVIYYNSDRPSGVPDRFSGSKSGSSGTLTITGLQAEDEADYYCSVYDRTFNAVFGGGT
notes: also called mAb4 ID No. 22
Turning to B1, the dissociation constant Kd turned out to be 0.0177 µM.

B2: mAb4 (felinized anti-IL31 antibody ZTS-5864) S428Y and S434F, feline IgG1a (antibody)
heavy: DVQLVESGGDLVKPGGSLRLTCVASGFTFSDYAMSWVRQAPGKGLQWVAGIDSVGSGTSYADSVKGRFTISRDNAKNTLYLQMNSLKTEDTATYYCASGFPGSFEHWGQGTLVTVSSASTTAPSVFPLAPSCGTTSGATVALACLVLGYFPEPVTVSWNSGALTSGVHTFPAVLQASGLYSLSSMVTVPSSRWLSDTFTCNVAHPPSNTKVDKTVRKTDHPPGPKPCDCPKCPPPEMLGGPSIFIFPPKPKDTLSISRTPEVTCLVVDLGPDDSDVQITWFVDNTQVYTAKTSPREEQFNSTYRVVSVLPILHQDWLKGKEFKCKVNSKSLPSPIERTISKAKGQPHEPQVYVLPPAQEELSRNKVSVTCLIKSFHPPDIAVEWEITGQPEPENNYRTTPPQLDSDGTYFVYSKLSVDRSHWQRGNTYTCSVYHEALHFHHTQKSLTQSPGK
VL: QSVLTQPSSVSGTLGQRITISCTGSSSNIGSGYVGWYQQVPGMGPKTVIYYNSDRPSGVPDRFSGSKSGSSGTLTITGLQAEDEADYYCSVYDRTFNAVFGGGT
notes: also called mAb4 ID No. 28
In turn, B2 returned a Kd of 0.0189 µM.

B3: mAb4 (felinized anti-IL31 antibody ZTS-5864) S428L and S434L, feline IgG1a (antibody)
heavy: DVQLVESGGDLVKPGGSLRLTCVASGFTFSDYAMSWVRQAPGKGLQWVAGIDSVGSGTSYADSVKGRFTISRDNAKNTLYLQMNSLKTEDTATYYCASGFPGSFEHWGQGTLVTVSSASTTAPSVFPLAPSCGTTSGATVALACLVLGYFPEPVTVSWNSGALTSGVHTFPAVLQASGLYSLSSMVTVPSSRWLSDTFTCNVAHPPSNTKVDKTVRKTDHPPGPKPCDCPKCPPPEMLGGPSIFIFPPKPKDTLSISRTPEVTCLVVDLGPDDSDVQITWFVDNTQVYTAKTSPREEQFNSTYRVVSVLPILHQDWLKGKEFKCKVNSKSLPSPIERTISKAKGQPHEPQVYVLPPAQEELSRNKVSVTCLIKSFHPPDIAVEWEITGQPEPENNYRTTPPQLDSDGTYFVYSKLSVDRSHWQRGNTYTCSVLHEALHLHHTQKSLTQSPGK
VL: QSVLTQPSSVSGTLGQRITISCTGSSSNIGSGYVGWYQQVPGMGPKTVIYYNSDRPSGVPDRFSGSKSGSSGTLTITGLQAEDEADYYCSVYDRTFNAVFGGGT
notes: also called mAb4 ID No. 24
In turn, B3 returned a Kd of 0.0972 µM.

B4: mAb4 (felinized anti-IL31 antibody ZTS-5864) S428M and S434L, feline IgG1a, ID No. 34 (antibody)
heavy: DVQLVESGGDLVKPGGSLRLTCVASGFTFSDYAMSWVRQAPGKGLQWVAGIDSVGSGTSYADSVKGRFTISRDNAKNTLYLQMNSLKTEDTATYYCASGFPGSFEHWGQGTLVTVSSASTTAPSVFPLAPSCGTTSGATVALACLVLGYFPEPVTVSWNSGALTSGVHTFPAVLQASGLYSLSSMVTVPSSRWLSDTFTCNVAHPPSNTKVDKTVRKTDHPPGPKPCDCPKCPPPEMLGGPSIFIFPPKPKDTLSISRTPEVTCLVVDLGPDDSDVQITWFVDNTQVYTAKTSPREEQFNSTYRVVSVLPILHQDWLKGKEFKCKVNSKSLPSPIERTISKAKGQPHEPQVYVLPPAQEELSRNKVSVTCLIKSFHPPDIAVEWEITGQPEPENNYRTTPPQLDSDGTYFVYSKLSVDRSHWQRGNTYTCSVMHEALHLHHTQKSLTQSPGK
VL: QSVLTQPSSVSGTLGQRITISCTGSSSNIGSGYVGWYQQVPGMGPKTVIYYNSDRPSGVPDRFSGSKSGSSGTLTITGLQAEDEADYYCSVYDRTFNAVFGGGT
notes: Same printed mutations as ID No. 49; also called mAb4 ID No. 34
With B4, the Kd stood at 0.0283 µM.

B5: mAb4 (felinized anti-IL31 antibody ZTS-5864) S428M and S434H, feline IgG1a (antibody)
heavy: DVQLVESGGDLVKPGGSLRLTCVASGFTFSDYAMSWVRQAPGKGLQWVAGIDSVGSGTSYADSVKGRFTISRDNAKNTLYLQMNSLKTEDTATYYCASGFPGSFEHWGQGTLVTVSSASTTAPSVFPLAPSCGTTSGATVALACLVLGYFPEPVTVSWNSGALTSGVHTFPAVLQASGLYSLSSMVTVPSSRWLSDTFTCNVAHPPSNTKVDKTVRKTDHPPGPKPCDCPKCPPPEMLGGPSIFIFPPKPKDTLSISRTPEVTCLVVDLGPDDSDVQITWFVDNTQVYTAKTSPREEQFNSTYRVVSVLPILHQDWLKGKEFKCKVNSKSLPSPIERTISKAKGQPHEPQVYVLPPAQEELSRNKVSVTCLIKSFHPPDIAVEWEITGQPEPENNYRTTPPQLDSDGTYFVYSKLSVDRSHWQRGNTYTCSVMHEALHHHHTQKSLTQSPGK
VL: QSVLTQPSSVSGTLGQRITISCTGSSSNIGSGYVGWYQQVPGMGPKTVIYYNSDRPSGVPDRFSGSKSGSSGTLTITGLQAEDEADYYCSVYDRTFNAVFGGGT
notes: also called mAb4 ID No. 32
B5 yielded a Kd of 0.0172 µM.

B6: mAb4 (felinized anti-IL31 antibody ZTS-5864) S428V, feline IgG1a (antibody)
heavy: DVQLVESGGDLVKPGGSLRLTCVASGFTFSDYAMSWVRQAPGKGLQWVAGIDSVGSGTSYADSVKGRFTISRDNAKNTLYLQMNSLKTEDTATYYCASGFPGSFEHWGQGTLVTVSSASTTAPSVFPLAPSCGTTSGATVALACLVLGYFPEPVTVSWNSGALTSGVHTFPAVLQASGLYSLSSMVTVPSSRWLSDTFTCNVAHPPSNTKVDKTVRKTDHPPGPKPCDCPKCPPPEMLGGPSIFIFPPKPKDTLSISRTPEVTCLVVDLGPDDSDVQITWFVDNTQVYTAKTSPREEQFNSTYRVVSVLPILHQDWLKGKEFKCKVNSKSLPSPIERTISKAKGQPHEPQVYVLPPAQEELSRNKVSVTCLIKSFHPPDIAVEWEITGQPEPENNYRTTPPQLDSDGTYFVYSKLSVDRSHWQRGNTYTCSVVHEALHSHHTQKSLTQSPGK
VL: QSVLTQPSSVSGTLGQRITISCTGSSSNIGSGYVGWYQQVPGMGPKTVIYYNSDRPSGVPDRFSGSKSGSSGTLTITGLQAEDEADYYCSVYDRTFNAVFGGGT
notes: also called mAb4 ID No. 18
On to B6, for which the Kd came out at 0.0639 µM.

B7: mAb4 (felinized anti-IL31 antibody ZTS-5864) S428L and S434W, feline IgG1a (antibody)
heavy: DVQLVESGGDLVKPGGSLRLTCVASGFTFSDYAMSWVRQAPGKGLQWVAGIDSVGSGTSYADSVKGRFTISRDNAKNTLYLQMNSLKTEDTATYYCASGFPGSFEHWGQGTLVTVSSASTTAPSVFPLAPSCGTTSGATVALACLVLGYFPEPVTVSWNSGALTSGVHTFPAVLQASGLYSLSSMVTVPSSRWLSDTFTCNVAHPPSNTKVDKTVRKTDHPPGPKPCDCPKCPPPEMLGGPSIFIFPPKPKDTLSISRTPEVTCLVVDLGPDDSDVQITWFVDNTQVYTAKTSPREEQFNSTYRVVSVLPILHQDWLKGKEFKCKVNSKSLPSPIERTISKAKGQPHEPQVYVLPPAQEELSRNKVSVTCLIKSFHPPDIAVEWEITGQPEPENNYRTTPPQLDSDGTYFVYSKLSVDRSHWQRGNTYTCSVLHEALHWHHTQKSLTQSPGK
VL: QSVLTQPSSVSGTLGQRITISCTGSSSNIGSGYVGWYQQVPGMGPKTVIYYNSDRPSGVPDRFSGSKSGSSGTLTITGLQAEDEADYYCSVYDRTFNAVFGGGT
notes: also called mAb4 ID No. 26
For the molecule B7, the Kd stood at 0.0172 µM.

B8: mAb4 (felinized anti-IL31 antibody ZTS-5864) S428M and S434P, feline IgG1a, ID No. 35 (antibody)
heavy: DVQLVESGGDLVKPGGSLRLTCVASGFTFSDYAMSWVRQAPGKGLQWVAGIDSVGSGTSYADSVKGRFTISRDNAKNTLYLQMNSLKTEDTATYYCASGFPGSFEHWGQGTLVTVSSASTTAPSVFPLAPSCGTTSGATVALACLVLGYFPEPVTVSWNSGALTSGVHTFPAVLQASGLYSLSSMVTVPSSRWLSDTFTCNVAHPPSNTKVDKTVRKTDHPPGPKPCDCPKCPPPEMLGGPSIFIFPPKPKDTLSISRTPEVTCLVVDLGPDDSDVQITWFVDNTQVYTAKTSPREEQFNSTYRVVSVLPILHQDWLKGKEFKCKVNSKSLPSPIERTISKAKGQPHEPQVYVLPPAQEELSRNKVSVTCLIKSFHPPDIAVEWEITGQPEPENNYRTTPPQLDSDGTYFVYSKLSVDRSHWQRGNTYTCSVMHEALHPHHTQKSLTQSPGK
VL: QSVLTQPSSVSGTLGQRITISCTGSSSNIGSGYVGWYQQVPGMGPKTVIYYNSDRPSGVPDRFSGSKSGSSGTLTITGLQAEDEADYYCSVYDRTFNAVFGGGT
notes: Same printed mutations as ID No. 50; also called mAb4 ID No. 35
Consider B8, for which binding was put at a Kd of 0.042 µM.

B9: mAb4 (felinized anti-IL31 antibody ZTS-5864) S428L and S434P, feline IgG1a (antibody)
heavy: DVQLVESGGDLVKPGGSLRLTCVASGFTFSDYAMSWVRQAPGKGLQWVAGIDSVGSGTSYADSVKGRFTISRDNAKNTLYLQMNSLKTEDTATYYCASGFPGSFEHWGQGTLVTVSSASTTAPSVFPLAPSCGTTSGATVALACLVLGYFPEPVTVSWNSGALTSGVHTFPAVLQASGLYSLSSMVTVPSSRWLSDTFTCNVAHPPSNTKVDKTVRKTDHPPGPKPCDCPKCPPPEMLGGPSIFIFPPKPKDTLSISRTPEVTCLVVDLGPDDSDVQITWFVDNTQVYTAKTSPREEQFNSTYRVVSVLPILHQDWLKGKEFKCKVNSKSLPSPIERTISKAKGQPHEPQVYVLPPAQEELSRNKVSVTCLIKSFHPPDIAVEWEITGQPEPENNYRTTPPQLDSDGTYFVYSKLSVDRSHWQRGNTYTCSVLHEALHPHHTQKSLTQSPGK
VL: QSVLTQPSSVSGTLGQRITISCTGSSSNIGSGYVGWYQQVPGMGPKTVIYYNSDRPSGVPDRFSGSKSGSSGTLTITGLQAEDEADYYCSVYDRTFNAVFGGGT
notes: also called mAb4 ID No. 25
As to B9, the Kd stood at 2.25 µM.
